Assay [1] deals with IL-22R1a extracellular domain (ECD) (UniProt Q8N6P7). The assay is described as follows: binding ELISA on plate-coated IL-22R1a ECD, relative to Reference Standard (100%); stored -20 C, 18 months.
For assay [2] the target is unchanged. The experiment in a line: potency assay (binding ELISA on plate-coated IL-22R1a ECD); change after 6 months at 25 C (supportive stability study).
The target is the same in assay [3]. The assay is described as follows: potency assay (binding ELISA on plate-coated IL-22R1a ECD), relative to reference standard (100%); stored 5 C, 12 months.
Assay [4] shares this target. The assay is described as follows: binding ELISA on plate-coated IL-22R1a ECD, relative to Reference Standard (100%); stored -20 C, 6 months.
Assay [5] has the same target. The assay is described as follows: binding ELISA on plate-coated IL-22R1a ECD, relative to Reference Standard (100%); stored 5 C, 3 months.
Assay [6] shares this target. The experiment in a line: potency assay (binding ELISA on plate-coated IL-22R1a ECD), relative to reference standard (100%); stored 5 C, 42 months.

This passage reports Potency by Binding Assay (% relative potency) (% relative potency), loss of % relative potency (% relative potency) and Potency (% relative potency) (% relative potency) results from patent publication US20200353049A1.

Chain of UniProt Q8N6P7 (Q8N6P7 16-228 limits assumed): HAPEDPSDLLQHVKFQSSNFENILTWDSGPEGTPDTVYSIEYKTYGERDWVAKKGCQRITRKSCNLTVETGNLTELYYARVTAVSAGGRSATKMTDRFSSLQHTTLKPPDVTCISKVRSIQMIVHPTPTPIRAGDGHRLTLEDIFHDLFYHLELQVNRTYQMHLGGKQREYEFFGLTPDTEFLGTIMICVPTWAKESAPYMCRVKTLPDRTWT

For the substance IL-22 Fc fusion protein, the Potency by Binding Assay (% relative potency) (% relative potency) came to 101 in assay [1], 73 in assay [4] and 73 in assay [5]. Besides, the loss of % relative potency (% relative potency) in assay [2] is 29. Besides, the Potency (% relative potency) (% relative potency) came out at 67 in assay [3] and 87 in assay [6].
